According to patent US20110123543A1:

Columns and labels:
[1] = target: recombinant mouse TNFα (mouse) (UniProt P06804); test: cell-based or functional assay
[2] = target: recombinant human TNFα (rhTNF, Dainippon, Osaka, Japan) (human) (UniProt P01375); test: Scatchard analysis; direct binding of 125I-labelled antibody to rhTNFα immobilized in a 96-well plate
Chain of UniProt P01375 (P01375 77-233 limits assumed): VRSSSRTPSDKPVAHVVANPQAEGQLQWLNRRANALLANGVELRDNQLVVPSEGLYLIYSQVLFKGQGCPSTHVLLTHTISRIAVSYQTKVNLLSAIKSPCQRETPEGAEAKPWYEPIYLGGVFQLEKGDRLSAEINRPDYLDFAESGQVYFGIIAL

Chain of UniProt P06804 (P06804 80-235 limits assumed): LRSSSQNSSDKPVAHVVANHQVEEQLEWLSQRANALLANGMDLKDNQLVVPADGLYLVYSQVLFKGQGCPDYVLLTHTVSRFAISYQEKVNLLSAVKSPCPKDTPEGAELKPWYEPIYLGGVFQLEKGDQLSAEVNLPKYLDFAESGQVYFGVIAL

“TN3-19.12, neutralizing hamster IgG1 anti-TNFα/β monoclonal antibody” gave a neutralizing titre: concentration required to cause 50% inhibition of killing of WEHI 164 cells by trimeric recombinant murine TNFα (60 pg/ml mouse TNFα) [1] of 62 ng/mL.

Work on “TNF receptor/IgG fusion protein p55-sf2 (from UniProt P19438 30-211; P01857 1-330) (Fc fusion)” yielded a neutralizing titre: concentration required to cause 50% inhibition of killing of WEHI 164 cells by trimeric recombinant murine TNFα (60 pg/ml mouse TNFα) [1] of 0.6 ng/mL.

In the case of “chimeric A2 (cA2), chimeric monoclonal anti-TNF antibody”, the Ka [2] is reported as 1.8e+09 M⁻¹.
